B1: Mothers against decapentaplegic homolog 3 (Homo sapiens), P84022 (parent)
chain: MSSILPFTPPIVKRLLGWKKGEQNGQEEKWCEKAVKSLVKKLKKTGQLDELEKAITTQNVNTKCITIPRSLDGRLQVSHRKGLPHVIYCRLWRWPDLHSHHELRAMELCEFAFNMKKDEVCVNPYHYQRVETPVLPPVLVPRHTEIPAEFPPLDDYSHSIPENTNFPAGIEPQSNIPETPPPGYLSEDGETSDHQMNHSMDAGSPNLSPNPMSPAHNNLDLQPVTYCEPAFWCSISYYELNQRVGETFHASQPSMTVDGFTDPSNSERFCLGLLSNVNRNAAVELTRRHIGRGVRLYYIGGEVFAECLSDSAIFVQSPNCNQRYGWHPATVCKIPPGCNLKIFNNQEFAALLAQSVNQGFEAVYQLTRMCTIRMSFVKGWGAEYRRQTVTSTPCWIELHLNGPLQWLDKVLTQMGSPSIRCSSVS

Variants of: B1
Conditions: with smuf2_human SMURF2, Q9HAU4

| effect of a mutation on the interaction | Variant |
| --- | --- |
| disrupting interaction | T179V |
| disrupting interaction | T179V;S204A;S208A;S213A |

Variants of: B1
Conditions: with smad4_human SMAD4, Q13485

| effect of a mutation on the interaction | Variant |
| --- | --- |
| decreasing interaction | K333R;K378R;K409R |
| decreasing interaction | K333R;K341R;K378R;K409R |

Variants of: B1
Conditions: with ubc_human UBC

| effect of a mutation on the interaction | Variant |
| --- | --- |
| decreasing interaction | K409R |
| decreasing interaction | K378R |
| decreasing interaction | K341R |
| decreasing interaction | K333R |
